Data from publication PMC10200994, “A family-wide assessment of latent STAT transcription factor interactions reveals divergent dimer repertoires” (The Journal of Biological Chemistry, 2023).

B1: STAT5B (unphosphorylated, wild-type), fluorophore fusion (natural protein, UniProt P51692 1-787, looked up)
chain: MAVWIQAQQLQGEALHQMQALYGQHFPIEVRHYLSQWIESQAWDSVDLDNPQENIKATQLLEGLVQELQKKAEHQVGEDGFLLKIKLGHYATQLQNTYDRCPMELVRCIRHILYNEQRLVREANNGSSPAGSLADAMSQKHLQINQTFEELRLVTQDTENELKKLQQTQEYFIIQYQESLRIQAQFGPLAQLSPQERLSRETALQQKQVSLEAWLQREAQTLQQYRVELAEKHQKTLQLLRKQQTIILDDELIQWKRRQQLAGNGGPPEGSLDVLQSWCEKLAEIIWQNRQQIRRAEHLCQQLPIPGPVEEMLAEVNATITDIISALVTSTFIIEKQPPQVLKTQTKFAATVRLLVGGKLNVHMNPPQVKATIISEQQAKSLLKNENTRNDYSGEILNNCCVMEYHQATGTLSAHFRNMSLKRIKRSDRRGAESVTEEKFTILFESQFSVGGNELVFQVKTLSLPVVVIVHGSQDNNATATVLWDNAFAEPGRVPFAVPDKVLWPQLCEALNMKFKAEVQSNRGLTKENLVFLAQKLFNNSSSHLEDYSGLSVSWSQFNRENLPGRNYTFWQWFDGVMEVLKKHLKPHWNDGAILGFVNKQQAHDLLINKPDGTFLLRFSDSEIGGITIAWKFDSQERMFWNLMPFTTRDFSIRSLADRLGDLNYLIYVFPDRPKDEVYSKYYTPVPCESATAKAVDGYVKPQIKQVVPEFVNASADAGGGSATYMDQAPSPAVCPQAHYNMYPQNPDSVLDTDGDFDLEDTMDVARRVEELLGRPMDSQWIPHAQS
notes: STAT5B, full-length wild type; One molecule for bait and test copies; also called U-STAT5B; STAT5B-NES; source: HeLa, transiently transfected, in cells; not shown: mCherry (test copy) or mEGFP (bait copy), C-terminal, kept
B2: STAT5A (unphosphorylated, wild-type), fluorophore fusion (natural protein, UniProt P42229 1-794, looked up)
chain: MAGWIQAQQLQGDALRQMQVLYGQHFPIEVRHYLAQWIESQPWDAIDLDNPQDRAQATQLLEGLVQELQKKAEHQVGEDGFLLKIKLGHYATQLQKTYDRCPLELVRCIRHILYNEQRLVREANNCSSPAGILVDAMSQKHLQINQTFEELRLVTQDTENELKKLQQTQEYFIIQYQESLRIQAQFAQLAQLSPQERLSRETALQQKQVSLEAWLQREAQTLQQYRVELAEKHQKTLQLLRKQQTIILDDELIQWKRRQQLAGNGGPPEGSLDVLQSWCEKLAEIIWQNRQQIRRAEHLCQQLPIPGPVEEMLAEVNATITDIISALVTSTFIIEKQPPQVLKTQTKFAATVRLLVGGKLNVHMNPPQVKATIISEQQAKSLLKNENTRNECSGEILNNCCVMEYHQATGTLSAHFRNMSLKRIKRADRRGAESVTEEKFTVLFESQFSVGSNELVFQVKTLSLPVVVIVHGSQDHNATATVLWDNAFAEPGRVPFAVPDKVLWPQLCEALNMKFKAEVQSNRGLTKENLVFLAQKLFNNSSSHLEDYSGLSVSWSQFNRENLPGWNYTFWQWFDGVMEVLKKHHKPHWNDGAILGFVNKQQAHDLLINKPDGTFLLRFSDSEIGGITIAWKFDSPERNLWNLKPFTTRDFSIRSLADRLGDLSYLIYVFPDRPKDEVFSKYYTPVLAKAVDGYVKPQIKQVVPEFVNASADAGGSSATYMDQAPSPAVCPQAPYNMYPQNPDHVLDQDGEFDLDETMDVARHVEELLRRPMDSLDSRLSPPAGLFTSARGSLS
notes: STAT5A, full-length wild type; One molecule for bait and test copies; also called U-STAT5A; STAT5A-NES; source: HeLa, transiently transfected, in cells; not shown: mCherry (test copy) or mEGFP (bait copy), C-terminal, kept
B3: STAT4 (unphosphorylated, wild-type), fluorophore fusion (natural protein, UniProt Q14765 1-748, looked up)
chain: MSQWNQVQQLEIKFLEQVDQFYDDNFPMEIRHLLAQWIENQDWEAASNNETMATILLQNLLIQLDEQLGRVSKEKNLLLIHNLKRIRKVLQGKFHGNPMHVAVVISNCLREERRILAAANMPVQGPLEKSLQSSSVSERQRNVEHKVAAIKNSVQMTEQDTKYLEDLQDEFDYRYKTIQTMDQSDKNSAMVNQEVLTLQEMLNSLDFKRKEALSKMTQIIHETDLLMNTMLIEELQDWKRRQQIACIGGPLHNGLDQLQNCFTLLAESLFQLRRQLEKLEEQSTKMTYEGDPIPMQRTHMLERVTFLIYNLFKNSFVVERQPCMPTHPQRPLVLKTLIQFTVKLRLLIKLPELNYQVKVKASIDKNVSTLSNRRFVLCGTNVKAMSIEESSNGSLSVEFRHLQPKEMKSSAGGKGNEGCHMVTEELHSITFETQICLYGLTIDLETSSLPVVMISNVSQLPNAWASIIWYNVSTNDSQNLVFFNNPPPATLSQLLEVMSWQFSSYVGRGLNSDQLHMLAEKLTVQSSYSDGHLTWAKFCKEHLPGKSFTFWTWLEAILDLIKKHILPLWIDGYVMGFVSKEKERLLLKDKMPGTFLLRFSESHLGGITFTWVDHSESGEVRFHSVEPYNKGRLSALPFADILRDYKVIMAENIPENPLKYLYPDIPKDKAFGKHYSSQPCEVSRPTERGDKGYVPSVFIPISTIRSDSTEPHSPSDLLPMSPSVYAVLRENLSPTTIETAMKSPYSAE
notes: STAT4, full-length wild type; One molecule for bait and test copies; also called U-STAT4; STAT4-NES; source: HeLa, transiently transfected, in cells; not shown: mCherry (test copy) or mEGFP (bait copy), C-terminal, kept
B4: STAT1 (unphosphorylated, wild-type), fluorophore fusion (natural protein, UniProt P42224 1-750, looked up)
chain: MSQWYELQQLDSKFLEQVHQLYDDSFPMEIRQYLAQWLEKQDWEHAANDVSFATIRFHDLLSQLDDQYSRFSLENNFLLQHNIRKSKRNLQDNFQEDPIQMSMIIYSCLKEERKILENAQRFNQAQSGNIQSTVMLDKQKELDSKVRNVKDKVMCIEHEIKSLEDLQDEYDFKCKTLQNREHETNGVAKSDQKQEQLLLKKMYLMLDNKRKEVVHKIIELLNVTELTQNALINDELVEWKRRQQSACIGGPPNACLDQLQNWFTIVAESLQQVRQQLKKLEELEQKYTYEHDPITKNKQVLWDRTFSLFQQLIQSSFVVERQPCMPTHPQRPLVLKTGVQFTVKLRLLVKLQELNYNLKVKVLFDKDVNERNTVKGFRKFNILGTHTKVMNMEESTNGSLAAEFRHLQLKEQKNAGTRTNEGPLIVTEELHSLSFETQLCQPGLVIDLETTSLPVVVISNVSQLPSGWASILWYNMLVAEPRNLSFFLTPPCARWAQLSEVLSWQFSSVTKRGLNVDQLNMLGEKLLGPNASPDGLIPWTRFCKENINDKNFPFWLWIESILELIKKHLLPLWNDGCIMGFISKERERALLKDQQPGTFLLRFSESSREGAITFTWVERSQNGGEPDFHAVEPYTKKELSAVTFPDIIRNYKVMAAENIPENPLKYLYPNIDKDHAFGKYYSRPKEAPEPMELDGPKGTGYIKTELISVSEVHPSRLQTTDNLLPMSPEEFDEVSRIVGSVEFDSMMNTV
notes: STAT1, full-length wild type; One molecule for bait and test copies; Three to five further heterologous residues flank the NES or NLS; cloning details only on request; also called U-STAT1; S1; source: HeLa, transiently transfected, in cells; not shown: mCherry (test copy) or mEGFP (bait copy), C-terminal, kept

What was measured:
Assay in all cases: co-localization assay (relocalisation of a test protein by a compartment-targeted bait, fluorescence microscopy); HeLa cells co-expressing bait (STAT-NES or STAT-NLS, or wild-type STAT2 with its own export activity; green) and test protein without heterologous signal (red); no cytokine; fixed 20 h after transfection; Pearson correlation coefficient rP in cells with equimolar to 4-fold excess of bait
[1] = biological target: B2; details: partners not purified
[2] = biological target: the molecule itself
[3] = biological target: T1, STAT2 (unphosphorylated, wild-type), fluorophore fusion (UniProt P52630 1-851); details: partners not purified
T1 construct: STAT2, full-length wild type; used as bait through its own nuclear export activity; No heterologous NES or NLS on wild-type STAT2; also called U-STAT2; S2; source: HeLa, transiently transfected, in cells; not shown: mEGFP or mCherry, C-terminal, kept
T1 sequence (P52630 whole entry, the tested form may be a part): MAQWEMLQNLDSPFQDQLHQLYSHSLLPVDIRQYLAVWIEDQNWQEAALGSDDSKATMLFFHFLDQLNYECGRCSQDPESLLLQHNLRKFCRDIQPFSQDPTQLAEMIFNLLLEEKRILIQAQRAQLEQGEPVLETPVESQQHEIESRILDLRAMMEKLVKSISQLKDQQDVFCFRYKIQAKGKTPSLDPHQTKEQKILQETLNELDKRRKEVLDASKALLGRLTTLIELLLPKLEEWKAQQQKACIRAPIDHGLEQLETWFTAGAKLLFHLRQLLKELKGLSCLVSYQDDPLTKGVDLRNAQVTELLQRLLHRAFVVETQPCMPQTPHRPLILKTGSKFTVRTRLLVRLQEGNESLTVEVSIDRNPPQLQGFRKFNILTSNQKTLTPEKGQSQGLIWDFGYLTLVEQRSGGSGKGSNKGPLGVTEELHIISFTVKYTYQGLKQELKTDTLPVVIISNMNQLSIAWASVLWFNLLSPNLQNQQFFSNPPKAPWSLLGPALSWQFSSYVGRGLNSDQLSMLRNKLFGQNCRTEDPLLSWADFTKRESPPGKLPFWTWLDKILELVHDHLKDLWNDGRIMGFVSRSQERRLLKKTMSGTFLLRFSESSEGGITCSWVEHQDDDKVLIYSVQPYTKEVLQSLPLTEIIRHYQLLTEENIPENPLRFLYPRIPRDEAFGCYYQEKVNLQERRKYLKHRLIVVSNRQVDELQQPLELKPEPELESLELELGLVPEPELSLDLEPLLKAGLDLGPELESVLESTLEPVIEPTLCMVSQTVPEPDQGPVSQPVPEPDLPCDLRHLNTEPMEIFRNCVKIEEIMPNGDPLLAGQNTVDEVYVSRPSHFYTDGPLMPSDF

Row | Binder | Pearson correlation coefficient rP (co-localization) [1] | Pearson correlation coefficient rP (co-localization) [2] | Pearson correlation coefficient rP (co-localization) [3]
1 | B1 | 0.97 | ≥ 0.94 | –
2 | B2 | – | ≥ 0.94 | –
3 | B3 | – | ≥ 0.94 | –
4 | B4 | – | – | 0.97
